The values that follow come from US20160289284.

This series deals with ZF6-DBD (AAV8-CMV delivered) (artificial (designed)). As to the kind of experiment: cell_activity. The note with it: pig retina, rhodopsin transcript by qRT-PCR, 15 days after AAV8 injection. (In general: Real-time PCR tracks product formation cycle by cycle.)

In turn, “porcine RHO proximal promoter / TSS region” came in with an activity of 45 % repression.
